Measurements reported in the nanobody polyreactivity screen of Harvey et al. (2022).

assay: yeast display, Sf9 membrane polyspecificity reagent, FACS + sequencing; frameworks hold sequencing errors
Outline: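 Polyreactivity labels are assigned by the sorting gate from which each nanobody was recovered. The gates were low and high (top ~1%), set on anti-HA fluorescence for expression and streptavidin fluorescence for reagent binding. Before sorting, galactose-induced (36–48 hours) yeast display cells were stained for 1 hour at 4 °C with 10% biotinylated, detergent-solubilized Sf9 membrane reagent.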

Row | Sequence | polyreactivity (PSR sort gate)
1 | QVQLVESGGGLVQAGGSLRLSCAASGRIFTYNAMGWYRQAPGKERELVAAISYSGGRTDYADSVKGRFTISRDNAKNTVYLQMHSLKPEDTAVYYCAARPGPYWTVTFRSPKYYYWGQGTQVTVSS | high polyreactivity
2 | QVQLVESGVGLVQAGGSLRLSCAASGRICVKYAMGWYRQAPGKERELVAAISASGGGTYYADSVKGRFTISRDNAKNTVYLQMNSLKPEDTAVYYCNADFRYPGQVPSYVTYDYWGQGTQVTVSS | low polyreactivity
3 | QVQLVESGGGLVQAGGSLRLSCAASGRTFYLYTMGWYRQAPGKERELVAAINGSGGSTYYADSVKGRFTISRDNAKNTVYLQMNSLKPEATAVYYCAVLYRYGYDYWGQGTQVTVSS | low polyreactivity
4 | QVQLVESGGGLVQAGGSLRLSCAASGRTFLLNAMGWSRQAPGKERELVAAITRSGVITYYADSVKGRFTISRDNAKNTVYLQMNSLKPEDTAVYYCAAQLRYSYLRPSYYYWGQGTQVTVSS | high polyreactivity
5 | QVQLVESGGGLVQAGGSLRLSCAASGRTFTSNGMGWYRQAPGKERELVAAITSGTSTYYADSVKGRFTISRDNAKNPVYLQMNSLKPEDTAVYYCNKLVPRGSSYSTVIRGGGYWGQGTQVTVSS | high polyreactivity
6 | QVQLVESGGGLVQAGGSLRLSCAASGITFYRYAVGWYRQAPGKERELVAAISCRGGRTYYADSVKGRFTISRDNAKKTVYLQMISLKPEDTAVDYCAAVASRIRGWLDITAYDYWGQGTQVTVSS | high polyreactivity
7 | QVQLVESGGGLVQAGGSLRLSCAASGSTFYHYTMGWYRQAPGKERELVAAITYSGGRTYYADSVKGRFTISRDNAKNTVYLQKNSLKPEDTAVYYCAATYSTPGAGYYHYWGQGTQVTVSS | high polyreactivity
8 | QVQLVESGGALVQAGGSLRLICAASGSIFGYNAMGWYRPSPGKEREFVASIRDRGGSTYYADSVKGRFTISRDNAKNTLYFQMKSLKQEDTAVYYGDAYWWGVSKRQYGYWGQGTQVTVSS | high polyreactivity
9 | QVQLVESGGGLVQAGGSLRLSCAASGSTFVRYAMGWYRQAPGKERELVAAIRGGGGTYYADSVKGRFTISRDNAKNTVYLQMNSLKPVDTAVYYCAADTYYYYWFAGYTEYDYWGQGTQVTVSS | low polyreactivity
10 | QVQLVESGGGLVQAGGSLRLSCAASGGTFQSNGMGWYIQAPGKERELVATITGSGGDTSYAGSVKGRFTISRDNAKNTVYLQMNSLKPEDTAVYYCAAADADRKYDYWGQGTQVTVSS | low polyreactivity
11 | QVQLVESGGGLVQAGGSLRLICAASGSIFYRYAMGWYRQAHGKEREFVAAITYSSRTTYYADSVQGRFTISRDNAKNTVYLQMNSLKPEDTAVYYCAAELSSSYYRRAMDYCGQGTQVTVSS | high polyreactivity
12 | QVQLVESGGGLVQAGGSLRLSCAASGNIYPYYAIGWYRQAPGKERELVAAINAGGGNTYYADSVKGRFTISRDNAKNTVYLQMNSLKPEDTAVYYCAARRVRIYYGSVVWYKYDYWGQGTQVTVSS | high polyreactivity
13 | QVQLVESVGGLVQAGVSLRLSCAASGRIFGRYPMGWYRQAPGKERELVAAISFNGGSTSYADSVKGRFTISRDNAKNTVYLQMNSLKQEDTAVYYCAAKYRGFNYWGQGTQVTVSS | high polyreactivity
14 | QVQLVESGGGLVQAGGSLRLSCAASGSIFGPYAMGWYRQAPGKERELVATINRGVTTYYADSVKGRFTISRDNAKNTVYLQMNSLKPEDTAVYYCAARTYAKRPGYYWGQGTQVTVSS | high polyreactivity
15 | QVQLVESGGGLVQAGGSLRLSCAASGGTFHRNAMGWYRQAPGKERELVAAITSSGGSTNYADSVKGRFTISRDNAKYTVYLQMNSLKPEETAVYYCATDRYRYTSHPWSRGFDYLGQGTQVTVSS | low polyreactivity
16 | QVQHVESRGGLVQAGGSLRLSCAASGRSFSDYAMGGYRQAAGKERELVASINSGGSTYYADSVKGRFTISRDKAKNTVYLHMNSLKPEDTAVYYCAAGFQLVKGSLSGRAAYYYWGQGTQVTVSS | high polyreactivity
17 | QVQLVESGGGLVQAGGSLRLSCAASGFTFFRYAMGWYRQAPGKERELVAAISYSGGNTYYADSVKGRFTISRDNAKNTVYLQMNSLKPEDTAVYYCNAVHFWKYDYWGQGTQVTVSS | high polyreactivity
18 | QVQLVESGGGLVQAGGSLRLSCAASGFIFSPNAMGWYRQAPGKEREFVAAIRYSGTSTSYADSVKGRFTISRDNAKNTVYLQMNSLKPEDTAVDYCAAQSRQRTGMYYWGQGTQVTVSS | high polyreactivity
19 | QVQLVESGGGLVQAGRILRLSCAASGRTFDSNAMGWYRQAPGKERELVAAISYGGGTTHYADSVKGRFTISRDNAKNTVYLQMNSLKPEYTAVYYCSADPEHLCESVTIGEYDYWGQGTQVTLSS | low polyreactivity
20 | QVQLVESGGGLVQAGGSLRLSCAASGFIFTYYAMGWYRQAPGKERELVAAISSSGGRTAYADSVKGRFTISRDNAKNTVYLQMNSLKPEDTAVYFCNARGTYRVANYDYWGQGTQVTVSS | high polyreactivity
21 | QVQLVESGGGLVQAGGSLRLSCAASGLIFYYNAMGWYRQAPGKERELVAAISTGGSTNYADSVKGRFTISRDNAKNTVYLQMNSLKPEDTAVYYCAAGTRNPYGYKMYYWGQGTQVTVSS | high polyreactivity
22 | QVQLVESGGGLVQAGGSLRLSCAASGRTFGSNAMGRYRQAPGKDRELVAAISVRGGRTYYADSVKGRFTISRDIAKNTGYLQMNSLKPEDTAVYYCNAVYRTYEYYWGQGTQVTVSS | high polyreactivity
23 | QVQLVESGGGLVQAGGSLRLSCAASGRTFANYAMGWYRQAPGKERELVAAISFSTVSTYYADSVKGRFTISRDNAKNTVYLQMNSLKPEDTAVYYCAARRLGYYRKVKELDYWGQGTQVTVSS | high polyreactivity
24 | QVQLVESGGGLVQAGGSLRLSCAASGSIFGHYAMGWYRPAPGKERELVAGISSSSGGRTYYADSVKGRFTISRDNAKNTVYLQMNSLKPEDTAVDYCAAVYSVQVSRRAKYYYWGQGTQVTVSS | high polyreactivity
25 | QVQHVESGGCLVQAGGSLRLSCAASGSIFSYYDMGWYRHAPGKERELVAAIRGSGGITYADSVKGRFTISRDNAKNTVYLQMNSLKPEETAVYYCAADQYYRSDYYYWGQGTQVTVSS | low polyreactivity
26 | QVHLVESGGGLVQAGGSLRLSCAASGIIFVLYTMGWYRQAPGKERELVATINWGGGNTYYADSLKGRFTISRDNAKNTVYLQMNSLKPEDTAVYYCAAAYTWYGYSQAYYYWGQGTQVTVSS | low polyreactivity
27 | QVQLVESGGGLVHAGGSLRLSCAASGSIFGRNAMGWYRQPPGKERELVARISSRGGSTYYADSVKGRFTISRDNAKNTVYLQMNSLKPEDTAVYYCNRDRTSQTNDYWGQGNQVTVSS | high polyreactivity
28 | QVQLQESGGGLVHACGSLRPSCAASGSISDSWRMSWYRQAPGTEREFVAGITWGGTTNYADSVKGRFTISRDNAKNTVYLQMNSLKPEDTAVYYCNARQRTYYRTHRIRHKGNGYWGQGTQVTVSS | low polyreactivity
29 | QVQLVESGAGLVQAGGSLRLTCAPSGSIFNIYSMGWYRQAPGKDRELVATITGIADSTYYADSVKGRFTISRDNANNTVYLQMNILKPEDTAFYYCAADIYVAEYDYWGQGTQVTVSS | low polyreactivity
30 | QVQLVESGGGLVQAGGSLRLSCAASGRTFAYNTMGWYRQAPGKERELVAAISTSGVRTFYADSVKGRFTISRDNAKNTVYLQMNSLKPEDTAVYSYDWGQGTQVTVSS | low polyreactivity
